Variants at the floor of the assay were thinned out.

The results in this text go back to the supplement of paper PMC9233669.

One data set concerns biotinyl-Ile-oxazolone. Nature of the data set: self-aminoacylation, catalytic enhancement (BIO) (fold over background); higher = more active; k-Seq, kA / k0A0; sequences stand for … in GGGAAUGGAUCCACAUCUACGAAUUC…UUCACUGCAGACUUGACGAAGCUG
The gist of the method:
(§1)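 Each biotinyl-aminoacyl-oxazolone, at 2–1250 μM, was incubated with mutagenized RNA pools (0.43 μM) carrying a 21-nt variable region. The 50 μL reactions contained HEPES/NaCl/KCl/MgCl2/CaCl2 buffer with 5% acetonitrile at pH 6.9–7.0 and ran for 90 minutes at room temperature. After streptavidin capture, RNA was measured by qPCR in triplicate and by Illumina sequencing, and catalytic enhancement was calculated as median kA over the uncatalyzed rate from a pseudo-first-order fit of per-sequence fraction reacted.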

Another data set concerns biotinyl-Trp-oxazolone. The data set is described as follows: self-aminoacylation, catalytic enhancement (BWO) (fold over background); higher = more active; k-Seq, kA / k0A0; sequences stand for … in GGGAAUGGAUCCACAUCUACGAAUUC…UUCACUGCAGACUUGACGAAGCUG
A digest of the protocol: as §1

In the next data set the test system is biotinyl-Met-oxazolone. Nature of the data set: self-aminoacylation, catalytic enhancement (BMO) (fold over background); higher = more active; k-Seq, kA / k0A0; sequences stand for … in GGGAAUGGAUCCACAUCUACGAAUUC…UUCACUGCAGACUUGACGAAGCUG
The gist of the method:
as §1

The next data set concerns biotinyl-Val-oxazolone. Nature of the data set: self-aminoacylation, catalytic enhancement (BVO) (fold over background); higher = more active; k-Seq, kA / k0A0; sequences stand for … in GGGAAUGGAUCCACAUCUACGAAUUC…UUCACUGCAGACUUGACGAAGCUG
The gist of the method:
as §1

The next data set has as its system biotinyl-Phe-oxazolone. The data set is described as follows: self-aminoacylation, catalytic enhancement (BFO) (fold over background); higher = more active; k-Seq, kA / k0A0; sequences stand for … in GGGAAUGGAUCCACAUCUACGAAUUC…UUCACUGCAGACUUGACGAAGCUG
A digest of the protocol:
as §1

A further data set concerns biotinyl-Leu-oxazolone. The data set is described as follows: self-aminoacylation, catalytic enhancement (BLO) (fold over background); higher = more active; k-Seq, kA / k0A0; sequences stand for … in GGGAAUGGAUCCACAUCUACGAAUUC…UUCACUGCAGACUUGACGAAGCUG
A digest of the protocol: as §1

With “CCACACUUCAAACAAUCGCUC [Fam1B.1 aminoacylation ribozyme variant]”, the self-aminoacylation was 1.1 in the data set on biotinyl-Ile-oxazolone; 0.765 in the data set on biotinyl-Trp-oxazolone; 0.869 in the data set on biotinyl-Met-oxazolone; 1.33 in the data set on biotinyl-Val-oxazolone; 1.32 in the data set with biotinyl-Phe-oxazolone; 1.29 with biotinyl-Leu-oxazolone.

As for “UUUACCCUGGUAAUCGAGUGA [Fam2.1 aminoacylation ribozyme variant]”, the self-aminoacylation is 4.2 with biotinyl-Ile-oxazolone; 10.4 in the data set with biotinyl-Trp-oxazolone; 9.02 in the data set with biotinyl-Met-oxazolone; 3.97 in the data set on biotinyl-Val-oxazolone; 58.7 in the data set on biotinyl-Phe-oxazolone; 8.58 in the data set on biotinyl-Leu-oxazolone.

With “AAGUUUGCUUAGAGUCGCAAG [Fam3.1 aminoacylation ribozyme variant]”, the self-aminoacylation in the data set with biotinyl-Ile-oxazolone is 0.725; with biotinyl-Trp-oxazolone it was 1; in the data set with biotinyl-Met-oxazolone, 0.757; in the data set with biotinyl-Val-oxazolone, 0.785; with biotinyl-Phe-oxazolone, 0.969; in the data set on biotinyl-Leu-oxazolone, 0.592.

With “AUUACCCUGGUCAUCGGGUCA [Fam2.1 aminoacylation ribozyme variant]”, the self-aminoacylation in the data set with biotinyl-Ile-oxazolone was determined as 3.61; in the data set with biotinyl-Trp-oxazolone, 9.71; with biotinyl-Met-oxazolone, 5.33; in the data set with biotinyl-Val-oxazolone, 4.01; in the data set with biotinyl-Phe-oxazolone it was 22.5; in the data set on biotinyl-Leu-oxazolone, 6.66.

Take “AAGUGUGCUGAUAGUCGCAAG [Fam3.1 aminoacylation ribozyme variant]”: the self-aminoacylation in the data set with biotinyl-Ile-oxazolone turned out to be 1.53; in the data set with biotinyl-Trp-oxazolone, 1.38; in the data set on biotinyl-Met-oxazolone it was 1.74; with biotinyl-Val-oxazolone, 1.24; in the data set with biotinyl-Phe-oxazolone it was 2.85; in the data set on biotinyl-Leu-oxazolone, 1.42.

In the case of “AUUACCCUGGACAUCGAGCGA [Fam2.1 aminoacylation ribozyme variant]”, the self-aminoacylation in the data set with biotinyl-Ile-oxazolone worked out at 1.24; in the data set on biotinyl-Trp-oxazolone, 1.34; in the data set on biotinyl-Met-oxazolone it was 1.45; in the data set with biotinyl-Val-oxazolone, 1.07; in the data set with biotinyl-Phe-oxazolone, 1.24; in the data set with biotinyl-Leu-oxazolone, 1.26.

In the case of “CUACUUCAGAUAAUCGGUCUG [Fam1A.1 aminoacylation ribozyme variant]”, the self-aminoacylation came out at 0.643 with biotinyl-Ile-oxazolone; 0.432 in the data set with biotinyl-Trp-oxazolone; 0.648 in the data set on biotinyl-Met-oxazolone; 0.686 in the data set with biotinyl-Val-oxazolone; 0.629 with biotinyl-Phe-oxazolone; 0.675 in the data set on biotinyl-Leu-oxazolone.

With “CCACACUUCAAGUAAUCGGGC [Fam1B.1 aminoacylation ribozyme variant]”, the self-aminoacylation with biotinyl-Ile-oxazolone was 1.68; with biotinyl-Trp-oxazolone, 1.73; with biotinyl-Met-oxazolone it was 1.64; with biotinyl-Val-oxazolone it was 1.69; with biotinyl-Phe-oxazolone, 1.28; with biotinyl-Leu-oxazolone, 1.54.

Consider “AUUUAACUAGGUCAUCGGGUG [Fam2.2 aminoacylation ribozyme variant]”, for which the self-aminoacylation in the data set on biotinyl-Ile-oxazolone was found to be 2.6; in the data set on biotinyl-Trp-oxazolone it was 3.75; with biotinyl-Met-oxazolone it was 4.3; with biotinyl-Val-oxazolone, 2.72; in the data set on biotinyl-Phe-oxazolone it was 31.4; in the data set on biotinyl-Leu-oxazolone, 5.03.

On to “AUUACGCAGGUCAUCGAGUGA [Fam2.1 aminoacylation ribozyme variant]”, for which the self-aminoacylation with biotinyl-Ile-oxazolone came out at 2.73; in the data set with biotinyl-Trp-oxazolone it was 5.06; in the data set with biotinyl-Met-oxazolone, 3.04; with biotinyl-Val-oxazolone, 2.45; in the data set with biotinyl-Phe-oxazolone it was 3.59; with biotinyl-Leu-oxazolone, 3.44.

Turning to “GUUCACCUUGGUCAUCGGGUG [Fam2.2 aminoacylation ribozyme variant]”, the self-aminoacylation with biotinyl-Ile-oxazolone stood at 3.45; in the data set with biotinyl-Trp-oxazolone, 5.93; in the data set with biotinyl-Met-oxazolone, 5.14; in the data set with biotinyl-Val-oxazolone, 4.34; with biotinyl-Phe-oxazolone it was 37.7; with biotinyl-Leu-oxazolone it was 5.74.

As to “AAGUUUGCUAAUAGUCCCAAU [Fam3.1 aminoacylation ribozyme variant]”, the self-aminoacylation in the data set with biotinyl-Ile-oxazolone amounted to 1.3; with biotinyl-Trp-oxazolone it was 1.28; with biotinyl-Met-oxazolone it was 0.987; with biotinyl-Val-oxazolone, 0.912; in the data set on biotinyl-Phe-oxazolone, 1.36; in the data set on biotinyl-Leu-oxazolone, 1.

For “CCACACUUCCGGCAAUCGGUC [Fam1B.1 aminoacylation ribozyme variant]”, the self-aminoacylation in the data set with biotinyl-Ile-oxazolone is 1.72; in the data set with biotinyl-Trp-oxazolone it was 2.13; in the data set with biotinyl-Met-oxazolone, 2.02; in the data set with biotinyl-Val-oxazolone, 2.12; in the data set with biotinyl-Phe-oxazolone, 5.25; in the data set on biotinyl-Leu-oxazolone it was 1.59.

On to “AUUACCCUGGGAAUCGAGUGA [Fam2.1 aminoacylation ribozyme variant]”, for which the self-aminoacylation came out at 2.78 with biotinyl-Ile-oxazolone; 4.59 in the data set with biotinyl-Trp-oxazolone; 5.72 in the data set on biotinyl-Met-oxazolone; 3.29 with biotinyl-Val-oxazolone; 26.8 in the data set with biotinyl-Phe-oxazolone; 5.93 with biotinyl-Leu-oxazolone.

Regarding “AAGUUUGGUAAUAGUCGCACG [Fam3.1 aminoacylation ribozyme variant]”, the self-aminoacylation in the data set on biotinyl-Ile-oxazolone turned out to be 1.18; in the data set with biotinyl-Trp-oxazolone, 1.09; in the data set with biotinyl-Met-oxazolone, 1.07; in the data set with biotinyl-Val-oxazolone, 1.11; with biotinyl-Phe-oxazolone, 1.98; in the data set on biotinyl-Leu-oxazolone, 1.45.

For “CUACUUCAAACAAACGGUCUU [Fam1A.1 aminoacylation ribozyme variant]”, the self-aminoacylation with biotinyl-Ile-oxazolone stood at 0.904; in the data set with biotinyl-Trp-oxazolone, 0.74; in the data set on biotinyl-Met-oxazolone it was 0.982; with biotinyl-Val-oxazolone, 0.901; in the data set on biotinyl-Phe-oxazolone, 0.824; with biotinyl-Leu-oxazolone, 0.879.

As to “CCACACUUCAAGCAAUCGGGU [Fam1B.1 aminoacylation ribozyme variant]”, the self-aminoacylation is 1.51 with biotinyl-Ile-oxazolone; 1.06 in the data set with biotinyl-Trp-oxazolone; 1.41 in the data set on biotinyl-Met-oxazolone; 1.8 in the data set on biotinyl-Val-oxazolone; 0.915 in the data set with biotinyl-Phe-oxazolone; 1.87 in the data set on biotinyl-Leu-oxazolone.

Consider “AAGUUUGCUAUUAGUCGCCAG [Fam3.1 aminoacylation ribozyme variant]”, for which the self-aminoacylation in the data set with biotinyl-Ile-oxazolone stood at 1.01; with biotinyl-Trp-oxazolone, 0.849; in the data set on biotinyl-Met-oxazolone, 0.864; with biotinyl-Val-oxazolone it was 0.818; with biotinyl-Phe-oxazolone it was 0.947; in the data set with biotinyl-Leu-oxazolone it was 1.12.

In the case of “CCACACUUCAAGUAAUCGUUC [Fam1B.1 aminoacylation ribozyme variant]”, the self-aminoacylation is 0.628 in the data set with biotinyl-Ile-oxazolone; 0.552 in the data set with biotinyl-Trp-oxazolone; 0.613 in the data set with biotinyl-Met-oxazolone; 0.801 in the data set on biotinyl-Val-oxazolone; 0.886 with biotinyl-Phe-oxazolone; 0.705 in the data set with biotinyl-Leu-oxazolone.

For “CCACACUGUAAGCAAUCGGUC [Fam1B.1 aminoacylation ribozyme variant]”, the self-aminoacylation in the data set with biotinyl-Ile-oxazolone was 1.06; in the data set with biotinyl-Trp-oxazolone, 1.16; in the data set on biotinyl-Met-oxazolone, 0.953; in the data set with biotinyl-Val-oxazolone, 1.14; in the data set with biotinyl-Phe-oxazolone, 0.898; in the data set on biotinyl-Leu-oxazolone, 1.09.

Take “CCACACUUUAAGCAAUCGCUC [Fam1B.1 aminoacylation ribozyme variant]”: the self-aminoacylation with biotinyl-Ile-oxazolone worked out at 0.99; in the data set with biotinyl-Trp-oxazolone, 1.2; in the data set with biotinyl-Met-oxazolone, 1.1; with biotinyl-Val-oxazolone, 1.08; in the data set with biotinyl-Phe-oxazolone, 0.598; with biotinyl-Leu-oxazolone, 0.897.

With “CCACACUUCAAGCAAUCGCGC [Fam1B.1 aminoacylation ribozyme variant]”, the self-aminoacylation is 2.08 in the data set with biotinyl-Ile-oxazolone; 2.44 in the data set with biotinyl-Trp-oxazolone; 2.16 with biotinyl-Met-oxazolone; 3.35 in the data set with biotinyl-Val-oxazolone; 6.7 with biotinyl-Phe-oxazolone; 3.04 with biotinyl-Leu-oxazolone.

For the sequence “CCACACUUCAUUCAAUCGGUC [Fam1B.1 aminoacylation ribozyme variant]”, the self-aminoacylation in the data set on biotinyl-Ile-oxazolone amounted to 0.806; in the data set with biotinyl-Trp-oxazolone, 0.495; in the data set on biotinyl-Met-oxazolone it was 0.604; in the data set on biotinyl-Val-oxazolone, 0.744; in the data set on biotinyl-Phe-oxazolone, 0.605; in the data set with biotinyl-Leu-oxazolone it was 0.701.
